According to patent US10466252B2, “Methods for selecting protease resistant polypeptides” (Glaxo Group Limited, priority 2008, dated 2019):
Positions count from the first letter of the chain named.

B1: DMS7148: *GLP-1 variant (W25-D mutation) fused to ALBUDAB DOM7h-14 by PSS linker; SEQ ID NO: 16 (protein)
chain: HGEGTFTSDVSSYLEGQAAKEFIADLVEGRGPSSDIQMTQSPSSLSASVGDRVTITCRASQWIGSQLSWYQQKPGKAPKLLIMWRSSLQSGVPSRFSGSGSGTDFTLTISSLQPEDFATYYCAQGAALPRTFGQGTKVEIKR
modifications: Source Amino acid sequence of DMS7148 domain antibody made using molecular biology techniques.
B2: DMS7161: *GLP-1 variant of DMS7148 fused to DOM7h-14-10 by PSS linker; A = minimal media, B = with Yeast Extract (protein)
chain: B1 chain with A126L, A127R, L128H, R130K
modifications: Source Amino acid sequence of DMS7161 domain antibody made using molecular biology techniques.
notes: *GLP-1 variant of DMS7148 fused to DOM7h-14-10 by PSS linker; A = minimal media, B = with Yeast Extract

Tests used:
human GLP-1 receptor = target: T1, human GLP-1 receptor (Homo sapiens, UniProt P43220); experiment: GLP-1 receptor assay, CHO 6CRE GLP1R cells, luciferase reporter (384-well, STEADY GLO); type: cell-based
T1 construct: expressed in transfected cells; host or cells: CHO K1 (CHO 6CRE GLP1R)
T1 sequence (P43220 24-463): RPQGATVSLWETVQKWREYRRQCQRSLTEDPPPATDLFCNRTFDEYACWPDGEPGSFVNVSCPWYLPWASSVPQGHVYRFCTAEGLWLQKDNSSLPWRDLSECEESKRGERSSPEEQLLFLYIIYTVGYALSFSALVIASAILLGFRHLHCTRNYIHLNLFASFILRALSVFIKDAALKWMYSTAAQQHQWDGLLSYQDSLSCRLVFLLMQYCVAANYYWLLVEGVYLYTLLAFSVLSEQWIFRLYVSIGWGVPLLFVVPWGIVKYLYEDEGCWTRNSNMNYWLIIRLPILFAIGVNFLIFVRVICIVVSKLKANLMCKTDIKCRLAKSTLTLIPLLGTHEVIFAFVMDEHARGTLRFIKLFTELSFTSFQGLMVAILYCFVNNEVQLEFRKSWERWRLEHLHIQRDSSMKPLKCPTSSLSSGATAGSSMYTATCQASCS
Method: Background: GLP-1R is a 7TM G-protein coupled receptor which is expressed on CHO cells. […] CHO cells are stably transfected with the 6CRE/luc reporter gene. […] This then catalyses a reaction with luciferin to produce light which can be measured on a luminometer.
Suspension culture was maintained for forty-eight hours. Cells were then diluted into 15 mM HEPES, 2 mM L glutamine (2.5×10^5 cells/ml) and dispensed into 384-well plates containing 10 ul/well of the compound to be assayed. After the addition of assay controls, plates were returned to the incubator for 3h at 37° C. and 5% CO2. […] Plates were placed in the reader (Packard TopCount) and pre-incubated for 5 minutes prior to reading […] and plotting of results. Compound was assayed at a range of concentrations response curve to be fitted from which pC50s were calculated.

[1] = test system: natural protease acting in E. coli cells; experiment: Integrity after expression in E. coli (non reducing SDS-PAGE, mass spectrometry, Edman sequencing); settings: MS and Edman sequencing
Method: Expression was performed by inoculation of a 50 milliliter culture of 2×TY media supplemented with OVERNIGHT EXPRESS™ autoinduction solutions (1 milliliter of Solution 1 (Cat. No. 71298), 2.5 milliliters of Solution 2 (Cat. No. 71299), 50 microliters of Solution 3 (Cat. No 71304), Novagen) and 100 microgram per milliliter of carbenicillin. Culture was carried overnight at 37° C., and then the culture supernatant was clarified by centrifugation at 3700×g for 45 minutes. The expressed protein was then purified from the clarified supernatant using PROTEIN L STREAMLINE™ (GE Healthcare, Cat. No. 28-4058-03, protein L coupled), and eluted from the Protein L using 0.1M glycine pH 2.0, then neutralized using 0.2 volumes of 1M Tris pH 8.0.
After the plasmid DNA pDOM35 comprising sequence of DMS7161 was transformed into BL21(DE3), glycerol stock was prepared from grown colonies, by scraping colonies into minimal media with glucose and addition of glycerol, final conentration of approximately 15%. Expression of DMS7161 was started by inoculation of the glycerol into 50 milliliters of minimal media (DMS7161 A) supplemented in Yeast Extract for final concentration 10 g/liter (DMS7161 B) so as to obtain the starting culture density of OD600=0.024. The culture was grown to OD600 of approximately 1.4 at 30° C., then induced by the addition of 0.1 mM isopropyl-beta-d-thiogalactoside. […]

[2] = target: T2, GLP-1 receptor (CHO 6CRE GLP1R cells) (Homo sapiens, UniProt P43220); experiment: GLP-1 assay, CHO 6CRE GLP1R cells, luciferase reporter (96-well, BRIGHT-GLO); type: cell-based
T2 construct: expressed in transfected cells; host or cells: CHO 6CRE GLP1R cells (CHO K1)
T2 sequence (P43220 24-463): as above

Molecule	% max response (human GLP-1 receptor; CHO 6CRE GLP1R cells, 3h at 37° C.)	activity in GLP-1 receptor assay compared with GLP-1 peptide (human GLP-1 receptor; FIG. 6)	integrity / degradation on expression in E. coli [1]	activity compared with DMS7148 [2]
B1	107%	active, however less active than GLP-1 peptide	well expressed in E. coli with the majority of material migrating at the expected size	
B2			well expressed in E. coli with the majority of material migrating at the expected size	as active as DMS7148
